Data: patent US20250101111A1 (ARGENX, published 2025)

Experiments:
human FcγRIa = molecular target: T1, human FcγRIa (human, UniProt P12314 16-288); assay: SPR (IBIS MX96), FcγR captured on sensor, Fc fragment titrated, pH 7.4, equilibrium 1:1 fit
T1 construct: Bought, C-terminally His-tagged; captured on the sensor by biotinylated anti-His mIgG1; also called hFcγRIa; not shown: C-terminal His tag
Method: (§1) The sensor surface was regenerated between the cycles by subsequent injections of 20 mM Tris-HCl, 150 mM NaCl pH 8.8 and 20 mM H₃PO₄ pH 2.4. […] Regeneration of the sensor surface between the cycles was performed by injection of 10 mM Gly-HCl pH 2.4. Affinity calculations were carried out by performing an equilibrium analysis interpolating to an Rmax of 200 to 600, depending on the assay, and fitting a 1:1 Langmuir binding model, assuming equilibrium to be reached after 360s of IgG-Fc containing analyte injections. Analysis and calculations were performed using Scrubber Software Version 2 (BioLogic Software), Excel (Microsoft) and Graphpad Prism (Prism).

human FcγRIIIa-158V = molecular target: T2, human FcγRIIIa-158V (human, UniProt P08637 17-208, C-terminal biotin); assay: SPR, Fc fragments on captured FcγRs, pH 7.4
T2 construct: Bought, C-terminally biotinylated; captured on a streptavidin sensor; also called hFcγRIIIa-158V
Method: as §1

human FcγRIIa-131H = molecular target: T3, human FcγRIIa-131H (human, UniProt P12318 34-218, C-terminal biotin); assay: SPR, Fc fragments on captured FcγRs, pH 7.4
T3 construct: Bought, C-terminally biotinylated; captured on a streptavidin sensor
T3 sequence (looked up): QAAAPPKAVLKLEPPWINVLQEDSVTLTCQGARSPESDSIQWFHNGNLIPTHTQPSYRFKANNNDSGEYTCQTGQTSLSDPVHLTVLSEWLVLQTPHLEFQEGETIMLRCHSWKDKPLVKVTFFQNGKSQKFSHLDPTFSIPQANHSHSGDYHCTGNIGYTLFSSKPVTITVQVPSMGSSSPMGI
Method: as §1

human FcγRIIIa-158F = molecular target: T4, human FcγRIIIa-158F (human, UniProt P08637 17-208, C-terminal biotin); assay: SPR, Fc fragments on captured FcγRs, pH 7.4
T4 construct: Bought, C-terminally biotinylated; captured on a streptavidin sensor; also called hFcγRIIIa-158F
Method: as §1

human FcγRIIIb-NA1 = molecular target: T5, human FcγRIIIb-NA1 (human, UniProt O75015 17-200, limits assumed, C-terminal biotin); assay: SPR, Fc fragments on captured FcγRs, pH 7.4
T5 construct: In-house, C-terminally biotinylated; captured on a streptavidin sensor; also called hFcγRIIIb-NA1
Method: as §1

human FcγRIIIb-NA2 = molecular target: T6, human FcγRIIIb-NA2 (human, UniProt O75015 17-200, limits assumed, C-terminal biotin); assay: SPR, Fc fragments on captured FcγRs, pH 7.4
T6 construct: In-house, C-terminally biotinylated; captured on a streptavidin sensor; also called hFcγRIIIb-NA2
Method: as §1

human FcγRIIa-131R = molecular target: T7, human FcγRIIa-131R (human, UniProt P12318 34-218, C-terminal biotin); assay: SPR, Fc fragments on captured FcγRs, pH 7.4
T7 construct: Bought, C-terminally biotinylated; captured on a streptavidin sensor
T7 sequence (looked up): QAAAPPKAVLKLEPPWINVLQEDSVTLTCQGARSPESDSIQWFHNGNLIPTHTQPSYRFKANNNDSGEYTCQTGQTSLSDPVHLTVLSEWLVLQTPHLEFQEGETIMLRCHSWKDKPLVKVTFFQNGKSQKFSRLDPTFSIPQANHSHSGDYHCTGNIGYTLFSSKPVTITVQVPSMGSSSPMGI
Method: as §1

[1] = molecular target: T8, human FcRn, endogenous, in THP-1 cells and blood monocytes (human, UniProt P55899 24-365; P61769 21-119); assay: intracellular FcRn occupancy assay, flow cytometry: THP-1 FcγRIIa K.O. cells preloaded with IVIg, free FcRn stained with DL650-labeled anti-FcRn Fab
T8 construct: whole, on cells; Mainly intracellular; measured in intact or permeabilised cells
T8 sequence (P55899 24-365 limits assumed, chain 1 of 2): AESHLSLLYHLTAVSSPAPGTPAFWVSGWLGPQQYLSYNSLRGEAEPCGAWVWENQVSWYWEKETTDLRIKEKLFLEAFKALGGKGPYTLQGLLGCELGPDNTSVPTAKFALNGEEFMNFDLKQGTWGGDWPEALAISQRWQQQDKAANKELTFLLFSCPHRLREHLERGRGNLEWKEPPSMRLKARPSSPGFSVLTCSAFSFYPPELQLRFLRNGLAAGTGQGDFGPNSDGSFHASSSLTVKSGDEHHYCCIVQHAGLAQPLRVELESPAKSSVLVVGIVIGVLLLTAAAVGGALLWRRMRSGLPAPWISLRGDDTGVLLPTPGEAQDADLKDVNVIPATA
T8 sequence (P61769 21-119 limits assumed, chain 2 of 2): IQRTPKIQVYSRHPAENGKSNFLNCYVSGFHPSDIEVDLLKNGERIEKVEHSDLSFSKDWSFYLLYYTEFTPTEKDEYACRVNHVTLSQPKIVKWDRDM
Method: In short, 1×10⁵ cells were loaded with 5-fold dilution series of IgG variants and fragments thereof for 2 h, ranging from 4 to 500 nM under culture conditions, as specified above. […] 95 μL of this cell solution was then combined with 5 μL of 20× concentrated dilution series of IgG variants and incubated for another 2 h under culture conditions. Thereafter, cells were transferred to 96-well V-bottom plate (Corning) and incubated on ice for 2 min. Cells were subsequently spun down for 3 min at 450×g at 4° C. and the supernatant was discarded. Following the same procedure, cells were washed five times with 150 μL ice-cold medium, followed by one wash with 150 μL 1×PBS supplemented with 1% (v/v) FCS at pH 7.4 and one wash with 150 μL of 1×PBS supplemented with 1% (v/v) FCS at pH 6.0. Cells were then fixed and permeabilized using both solutions of a Fixation/Permeabilization Kit (BD Biosciences) adapted to pH 6.0 after addition of MES (Thermo Fisher Scientific) to a final concentration of 0.5M, otherwise following manufacturer's instructions. […] Cells were washed twice with 150 μL 1×PBS supplemented with 1% (v/v) FCS at pH 6.0, spun down at 450×g at 4° C. for 3 min and the supernatants were discarded. Finally, cells were resuspended in 50 μL of the same buffer, transferred to Micronics tubes (Micronic) on ice and measured in flow cytometry.

T1 sequence (P12314 16-288 limits assumed): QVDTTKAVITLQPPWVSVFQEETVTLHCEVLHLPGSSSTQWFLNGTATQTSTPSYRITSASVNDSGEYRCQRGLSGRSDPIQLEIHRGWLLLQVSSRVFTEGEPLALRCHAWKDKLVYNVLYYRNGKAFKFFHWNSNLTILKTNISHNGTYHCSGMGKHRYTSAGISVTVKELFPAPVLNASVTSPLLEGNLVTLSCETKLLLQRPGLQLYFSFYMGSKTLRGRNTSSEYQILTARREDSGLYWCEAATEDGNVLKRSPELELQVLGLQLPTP

B1: Fc-IHH (other, human, UniProt P01857-1 104-330, looked up)
chain: DKTHTCPPCPAPELLGGPSVFLFPPKPKDTLMASRTPEVTCVVVDVSHEDPEVKFNWYVDGVEVHNAKTKPREEQYNSTYRVVSVLTVLAQDWLNGKEYKCKVSNKALPAPIEKTISKAKGQPREPQVYTLPPSRDELTKNQVSLTCLVKGFYPSDIAVEWESNGQPENNYKTTPPVLDSDGSFFLYSKLTVDKSRWQQGNVFSCSVMHEALHNAYTQKSLSLSPGK
notes: domain: Fc fragment; IHH = I253A H310A H435A (EU numbering); also called IgG1-Fc-IHH
Kd (human FcγRIa): 6.1 nM
fold reduction in binding compared to Fc-WT (human FcγRIIIa-158V): ≥ 3 fold
fold reduction in binding compared to Fc-WT (human FcγRIIa-131H): ≥ 3 fold
fold reduction in binding compared to Fc-WT (human FcγRIIIa-158F): ≥ 3 fold
fold reduction in binding compared to Fc-WT (human FcγRIIIb-NA1): ≥ 3 fold
fold reduction in binding compared to Fc-WT (human FcγRIIIb-NA2): ≥ 3 fold
fold reduction in binding compared to Fc-WT (human FcγRIIa-131R): ≥ 3 fold
binding result [1]: no binding (tested: 500 nM)
